The source of these data is article PMC9872604, “Targeting Multidrug-Recalcitrant Pseudomonas aeruginosa Biofilms: Combined-Enzyme Treatment Enhances Antibiotic Efficacy” (Antimicrobial Agents and Chemotherapy, 2023).

Substrate in data set [1]: CCCC(=O)N[C@H]1CCOC1=O
Nature of the data set: purified protein. The format is biochemical, Ochrobactrum sp. T63. The conditions noted are these: 50 mM sodium phosphate pH 6.8, 37 °C, 10 min, 5% methanol substrate.

Substrate in data set [2]: CCCCCCCCCC(=O)CC(=O)N[C@H]1CCOC1=O
The data set can be described thus: purified protein. The format is biochemical, Ochrobactrum sp. T63. The conditions noted are these: 50 mM sodium phosphate pH 6.8, 37 °C, 10 min, 5% methanol substrate.

B1: AidH (Ochrobactrum sp. T63) (protein)
chain: MTINYHELETSHGRIAVRESEGEGAPLLMIHGNSSSGAIFAPQLEGEIGKKWRVIAPDLPGHGKSTDAIDPDRSYSMEGYADAMTEVMQQLGIADAVVFGWSLGGHIGIEMIARYPEMRGLMITGTPPVAREEVGQGFKSGPDMALAGQEIFSERDVESYARSTCGEPFEASLLDIVARTDGRARRIMFEKFGSGTGGNQRDIVAEAQLPIAVVNGRDEPFVELDFVSKVKFGNLWEGKTHVIDNAGHAPFREAPAEFDAYLARFIRDCTQ
notes: full aidH gene in pET28a(+) (BamHI/HindIII), His-tagged, expressed in E. coli BL21(DE3), Ni-NTA and size exclusion purified
As usually defined, the Km is the substrate concentration at which the rate is half of its maximum. Usually kcat stands for the maximal rate divided by the concentration of active sites. As to B1, in the data set “purified protein [1]”, the Michaelis constant (Km) turned out to be 0.25 ± 0.03 mM and the kcat worked out at 39.8 ± 1.3 s⁻¹. In “purified protein [2]”, the Km is on record as 0.24 ± 0.03 mM and the kcat turned out to be 29.4 ± 1.7 s⁻¹.
